{"source": "IntAct's records for PubMed 30058071", "biological_target": "SHANK3, Q9BYB0-1", "sequence (Q9BYB0 whole entry)": "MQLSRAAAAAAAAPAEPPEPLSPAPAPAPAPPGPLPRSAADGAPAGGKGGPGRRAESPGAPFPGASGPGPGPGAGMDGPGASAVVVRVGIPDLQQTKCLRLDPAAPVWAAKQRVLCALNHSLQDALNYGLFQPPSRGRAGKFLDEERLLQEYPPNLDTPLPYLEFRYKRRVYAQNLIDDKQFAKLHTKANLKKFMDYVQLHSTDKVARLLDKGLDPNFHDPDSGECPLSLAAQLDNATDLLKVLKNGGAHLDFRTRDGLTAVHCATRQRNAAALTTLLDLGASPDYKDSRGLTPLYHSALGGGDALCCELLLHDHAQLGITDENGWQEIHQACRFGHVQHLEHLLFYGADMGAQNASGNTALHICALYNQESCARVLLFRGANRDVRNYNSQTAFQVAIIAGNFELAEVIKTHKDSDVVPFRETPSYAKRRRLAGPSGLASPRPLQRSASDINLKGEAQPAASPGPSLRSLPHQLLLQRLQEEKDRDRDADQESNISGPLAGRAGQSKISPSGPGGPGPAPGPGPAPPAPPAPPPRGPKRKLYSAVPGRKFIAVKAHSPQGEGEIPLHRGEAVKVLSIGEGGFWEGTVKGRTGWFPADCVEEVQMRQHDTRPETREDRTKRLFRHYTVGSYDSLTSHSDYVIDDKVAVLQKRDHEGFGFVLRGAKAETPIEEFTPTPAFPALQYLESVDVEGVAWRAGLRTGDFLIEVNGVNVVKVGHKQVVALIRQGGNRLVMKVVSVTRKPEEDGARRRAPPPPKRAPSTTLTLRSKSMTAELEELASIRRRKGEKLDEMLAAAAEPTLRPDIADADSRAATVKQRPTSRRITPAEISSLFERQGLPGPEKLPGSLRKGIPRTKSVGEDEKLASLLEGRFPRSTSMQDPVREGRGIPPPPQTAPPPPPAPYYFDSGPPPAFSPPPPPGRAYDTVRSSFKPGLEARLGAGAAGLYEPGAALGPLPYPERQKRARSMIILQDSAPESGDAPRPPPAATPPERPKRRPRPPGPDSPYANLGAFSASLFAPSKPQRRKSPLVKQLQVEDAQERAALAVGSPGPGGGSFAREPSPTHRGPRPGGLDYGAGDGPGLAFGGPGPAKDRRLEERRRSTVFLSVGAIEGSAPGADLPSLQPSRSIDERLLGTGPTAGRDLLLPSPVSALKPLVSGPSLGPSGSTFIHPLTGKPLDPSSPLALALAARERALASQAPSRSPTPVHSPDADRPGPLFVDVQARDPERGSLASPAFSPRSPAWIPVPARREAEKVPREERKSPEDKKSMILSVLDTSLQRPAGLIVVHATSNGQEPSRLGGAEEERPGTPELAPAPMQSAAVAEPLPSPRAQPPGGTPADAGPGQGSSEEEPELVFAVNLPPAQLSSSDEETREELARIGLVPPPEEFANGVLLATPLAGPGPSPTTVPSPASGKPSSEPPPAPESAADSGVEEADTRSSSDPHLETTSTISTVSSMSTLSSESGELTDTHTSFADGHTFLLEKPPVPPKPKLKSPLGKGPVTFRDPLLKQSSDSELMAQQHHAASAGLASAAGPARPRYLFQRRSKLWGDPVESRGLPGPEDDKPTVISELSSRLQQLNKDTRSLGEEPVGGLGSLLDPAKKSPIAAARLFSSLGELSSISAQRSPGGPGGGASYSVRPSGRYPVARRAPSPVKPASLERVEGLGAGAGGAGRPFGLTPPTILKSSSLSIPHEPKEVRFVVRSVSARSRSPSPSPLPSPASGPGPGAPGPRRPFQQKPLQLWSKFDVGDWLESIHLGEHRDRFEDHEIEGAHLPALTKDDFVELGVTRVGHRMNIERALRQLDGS"}
{"substance": "Voltage-dependent L-type calcium channel subunit alpha-1D (Homo sapiens), Q01668 R1908G", "values": [{"measurement": "effect of a mutation on the interaction", "result": "disrupting interaction strength"}]}
